T1: sCAR (UniProt P78310 20-237)
T1 construct: also called soluble coxsackievirus and Ad receptor (CAR)
T1 sequence: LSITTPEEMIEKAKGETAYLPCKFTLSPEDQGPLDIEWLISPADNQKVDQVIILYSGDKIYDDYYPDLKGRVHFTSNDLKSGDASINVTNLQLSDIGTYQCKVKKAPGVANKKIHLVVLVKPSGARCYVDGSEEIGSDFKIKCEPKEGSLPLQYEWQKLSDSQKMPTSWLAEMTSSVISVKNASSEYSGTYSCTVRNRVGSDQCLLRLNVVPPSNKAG


Experiments:
[1] = molecular target: blood coagulation factor X (UniProt P00742); assay: FX binding to immobilised virus (2900 RU); method not given, SPR (Biacore) named for FIG. 14B
Chain of blood coagulation factor X (P00742 41-488 limits assumed): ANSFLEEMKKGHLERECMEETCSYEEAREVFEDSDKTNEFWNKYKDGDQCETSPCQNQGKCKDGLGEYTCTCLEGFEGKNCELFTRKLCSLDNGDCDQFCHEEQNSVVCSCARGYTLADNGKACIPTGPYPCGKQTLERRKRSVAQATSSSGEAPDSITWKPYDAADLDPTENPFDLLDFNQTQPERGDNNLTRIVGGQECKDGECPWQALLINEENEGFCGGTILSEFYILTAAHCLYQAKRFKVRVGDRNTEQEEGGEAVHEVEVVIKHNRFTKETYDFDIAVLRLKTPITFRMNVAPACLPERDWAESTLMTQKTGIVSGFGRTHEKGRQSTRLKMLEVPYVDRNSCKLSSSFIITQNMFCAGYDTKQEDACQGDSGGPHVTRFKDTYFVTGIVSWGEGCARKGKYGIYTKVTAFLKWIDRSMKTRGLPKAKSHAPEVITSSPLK

sCAR = molecular target: T1, sCAR; assay: not stated; row marked with an asterisk that has no footnote

Row | Molecule | Kd [1] [nM] | Kd (sCAR) [nM]
1 | human adenovirus serotype 4 (Ad4), virus particle (from UniProt P49810) | 2480 | 
2 | Ad12 partner of the row Ad12-sCAR* (other) SNTPYDPLTLWTTPDPPPNCSLIQELDAKLTLCLTKNGSIVNGIVSLVGVKGNLLNIQSTTTTVGVHLVFDEQGRLITSTPTALVPQASWGYRQGQSVSTNTVTNGLGFMPNVSAYPRPNASEAKSQMVSLTYLQGDTSKPITMKVAFNGITSLNGYSLTFMWSGLSNYINQPFSTPSCSFSYITQE |  | 15
3 | Ad5 partner of the row Ad5-sCAR* (other) GAITVGNKNNDKLTLWTTPAPSPNCRLNAEKDAKLTLVLTKCGSQILATVSVLAVKGSLAPISGTVQSAHLIIRFDENGVLLNNSFLDPEYWNFRNGDLTEGTAYTNAVGFMPNLSAYPKSHGKTAKSNIVSQVYLNGDKTKPVTLTITLNGTQETGDTTPSAYSMSFSWDWSGHNYINEIFATSSYTFSYIAQE |  | 7.9
